Positions of bridges follow the written chain, without caps; N, C: chain ends. Non-standard residues stand in square brackets, D forms with d. No end group written: not given here.
Legend:
[1] = molecular target: T1, prohibitin (B cell receptor associated protein) (mouse); experiment: immunoprecipitation from mouse adipose tissue extract, SDS-PAGE
T1 sequence (P67778 2-272, looked up): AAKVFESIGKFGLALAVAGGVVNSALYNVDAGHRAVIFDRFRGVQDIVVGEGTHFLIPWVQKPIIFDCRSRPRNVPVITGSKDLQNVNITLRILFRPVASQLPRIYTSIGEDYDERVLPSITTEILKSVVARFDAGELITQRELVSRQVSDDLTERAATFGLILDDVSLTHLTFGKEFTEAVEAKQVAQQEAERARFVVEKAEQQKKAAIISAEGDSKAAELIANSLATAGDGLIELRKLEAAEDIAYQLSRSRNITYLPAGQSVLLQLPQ

[2] = molecular target: vascular endothelial growth factor receptor-1 (VEGFR1), recombinant (UniProt P17948 27-756, limits assumed); experiment: in vitro ligand-receptor binding assay, phage on recombinant receptor
Method: (§1) Recombinant IL-11Rα, vascular endothelial growth factor receptor-1 (VEGFR1) or leptin receptor (OB-R) were incubated with phage displaying the […] (SEQ ID NO:37) peptide. VEGFR1 was used as a representative vascular receptor, while OB-R was used because it shares a co-receptor with IL-11Rα. An unrelated phage clone displaying the peptide […] (SEQ ID NO:38) and insertless fd-tet phage were used as controls. […] Binding of […] (SEQ ID NO:37)-phage to IL-11Rα was specific, since it was inhibited by the native IL-11 ligand in a concentration-dependent manner (not shown). […] These observations with normal prostate tissues were followed by an examination of the expression of IL-11Rα in tumors, as discussed in the present Example.

[3] = molecular target: T2, leptin receptor (OB-R), recombinant (UniProt P48357 22-839, limits assumed); experiment: as above
T2 sequence (looked up): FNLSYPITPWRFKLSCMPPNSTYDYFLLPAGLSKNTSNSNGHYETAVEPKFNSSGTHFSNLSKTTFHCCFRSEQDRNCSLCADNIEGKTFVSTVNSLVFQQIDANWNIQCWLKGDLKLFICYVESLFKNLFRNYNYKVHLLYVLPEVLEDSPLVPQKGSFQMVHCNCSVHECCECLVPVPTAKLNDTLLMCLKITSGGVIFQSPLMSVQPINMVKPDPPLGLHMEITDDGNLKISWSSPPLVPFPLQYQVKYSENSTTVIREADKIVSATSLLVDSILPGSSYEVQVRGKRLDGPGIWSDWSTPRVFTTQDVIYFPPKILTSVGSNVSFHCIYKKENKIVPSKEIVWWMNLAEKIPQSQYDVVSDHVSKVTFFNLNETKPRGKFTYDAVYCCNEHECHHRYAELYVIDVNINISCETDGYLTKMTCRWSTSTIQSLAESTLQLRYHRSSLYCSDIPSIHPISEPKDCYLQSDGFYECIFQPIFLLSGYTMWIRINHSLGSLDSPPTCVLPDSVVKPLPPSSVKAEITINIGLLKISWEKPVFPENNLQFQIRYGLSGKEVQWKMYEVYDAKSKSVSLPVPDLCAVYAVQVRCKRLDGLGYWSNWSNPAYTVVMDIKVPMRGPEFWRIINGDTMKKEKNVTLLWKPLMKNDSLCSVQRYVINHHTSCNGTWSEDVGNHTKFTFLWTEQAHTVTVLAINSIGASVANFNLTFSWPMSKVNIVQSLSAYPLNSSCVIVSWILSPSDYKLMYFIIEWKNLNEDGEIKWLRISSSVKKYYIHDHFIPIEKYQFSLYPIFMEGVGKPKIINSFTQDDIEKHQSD
Method: as §1

[4] = molecular target: T3, Recombinant IL-11Rα (IL-11 receptor alpha) (UniProt Q14626 23-370, limits assumed); experiment: as above
T3 construct: also called immobilized IL-11Rα
T3 sequence (looked up): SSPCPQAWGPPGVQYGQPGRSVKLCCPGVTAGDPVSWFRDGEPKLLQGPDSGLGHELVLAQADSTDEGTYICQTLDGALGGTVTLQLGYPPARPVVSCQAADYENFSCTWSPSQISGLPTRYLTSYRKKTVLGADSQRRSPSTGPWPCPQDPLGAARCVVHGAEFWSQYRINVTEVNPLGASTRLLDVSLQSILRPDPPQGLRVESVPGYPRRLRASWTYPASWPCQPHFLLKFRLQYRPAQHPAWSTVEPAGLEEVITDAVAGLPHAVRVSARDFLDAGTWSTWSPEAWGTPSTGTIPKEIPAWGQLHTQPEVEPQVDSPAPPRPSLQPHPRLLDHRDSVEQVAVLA
Method: as §1

vascular endothelial growth factor receptor-1 (VEGFR1), recombinant, sequence (P17948 27-756 limits assumed): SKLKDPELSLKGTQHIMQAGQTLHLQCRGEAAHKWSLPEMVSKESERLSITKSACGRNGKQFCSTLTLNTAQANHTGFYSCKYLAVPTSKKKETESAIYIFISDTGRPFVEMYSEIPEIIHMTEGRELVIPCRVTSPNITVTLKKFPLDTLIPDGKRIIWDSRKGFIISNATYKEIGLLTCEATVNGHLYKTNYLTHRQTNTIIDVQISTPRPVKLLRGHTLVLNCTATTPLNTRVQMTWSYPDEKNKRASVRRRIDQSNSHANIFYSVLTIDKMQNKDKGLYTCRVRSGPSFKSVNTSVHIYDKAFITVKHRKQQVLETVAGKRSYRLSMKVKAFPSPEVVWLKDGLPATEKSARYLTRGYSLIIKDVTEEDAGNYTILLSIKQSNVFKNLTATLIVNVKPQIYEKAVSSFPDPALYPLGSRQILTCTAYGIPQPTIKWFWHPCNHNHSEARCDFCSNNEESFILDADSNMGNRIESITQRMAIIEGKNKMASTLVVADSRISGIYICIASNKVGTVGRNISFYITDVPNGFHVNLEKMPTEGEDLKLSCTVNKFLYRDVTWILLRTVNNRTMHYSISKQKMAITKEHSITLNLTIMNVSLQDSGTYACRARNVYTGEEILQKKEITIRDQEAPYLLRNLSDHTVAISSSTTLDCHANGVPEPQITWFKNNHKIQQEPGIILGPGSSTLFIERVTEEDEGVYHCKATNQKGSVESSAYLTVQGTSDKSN

B1: … (SEQ ID NO:81) conjugated to (KLAKLAK)2 (SEQ ID NO:1) (peptide)
peptide: CKGGRAKDCGG[dK][dL][dA][dK][dL][dA][dK][dK][dL][dA][dK][dL][dA][dK]
modifications: disulfide 1-9 (inferred); not fully specified; also: order of the parts not given here explicitly
Question: For B1, which fold enrichment against the CARAC (SEQ ID NO:71) precipitated fraction [1] is on record?
Answer: > 10 fold

B2: CGRRAGGSC (SEQ ID NO:37)-displaying phage (peptide)
peptide: CGRRAGGSC
modifications: not fully specified (bridges); cysteine pairing not given here; also: displayed on filamentous phage
notes: also called prostate-homing phage displaying an IL-11 peptide mimic
Question: Does B2 bind [2]?
Answer: no binding

Question: Does B2 bind [3]?
Answer: no binding

B3: unrelated phage clone displaying the peptide CRVDFSKGC (SEQ ID NO:38) (peptide)
peptide: CRVDFSKGC
notes: used as a control; also called control phage
Question: Does B3 bind [4]?
Answer: no binding

From patent US20060239968A1 (University of Texas, published 2006)
